Assay results as given in paper PMC6515407, “Laccases with Variable Properties from Different Strains of Steccherinum ochraceum: Does Glycosylation Matter?” (International Journal of Molecular Sciences, 2019).

Key:
Test in all cases: spectrophotometric oxidation kinetics
Type in all cases: biochemical, Steccherinum ochraceum
Conditions in all cases: 0.1 M McIlvaine buffer pH 4.5, 25 °C, native glycosylated enzyme
[1] = substrate: COc1cccc(OC)c1O
Text: (§1) spectrophotometric oxidation kinetics on So2134

[2] = substrate: CCn1c(=NN=c2sc3cc(S(=O)(=O)O)ccc3n2CC)sc2cc(S(=O)(=O)O)ccc21
Text: as §1

[3] = substrate: COc1cc(C=NN=Cc2cc(OC)c(O)c(OC)c2)cc(OC)c1O
Text: as §1

B1: So2134 (Steccherinum ochraceum) (protein)
chain: VQIGPVTDLHITNANIAPDGFTRPAVLAGGTFPGPTISGNTGDNFQITVFNELTETSMLTDTSIHWHGLFQKGTNWADGPAFVTQCPIITGNSFDYNFNVPGQAGTYWYHSHLSTQYCDGLRGPFVVYDPNDPNASLYDVDDDTTIITLADWYHTLAQQEPIGAAITADATLINGLGRSFTNTTASPLSVITVQSGKRYRMRLVSISCDPNYQFSIDGHDMTIIEVDGVNSQQLTVDQIQIFAAQRYSFVLNANQPVGNYWIRAQPNSGGQGFDGGINSAILRYEGATVADPTTSPPTTFTSPLVETNLHPLADLGVPGQPFRGGADDPMVLNLGFANGRFTIDGVSFVPPTVPVLLQILSGAQNAQDLLPAGSVISLPPNSVIEVALPAGAAGGPHPFHLHGHNFAVVQSANNATPNYVNPIWRDTVSIGGTGDNVTIRFTTNNPGPWFLHCHIDWHLEAGFAIVFAEDIPDTASANPVPQAWSDLCPAYDQAHNISTAT
Km [1]: 21 ± 2 µM | kcat [1]: 166 ± 14 s⁻¹ | kcat/Km [1]: 7.9e+06 ± 1.03e+06 M⁻¹ s⁻¹ | Km [2]: 100 ± 6 µM | kcat [2]: 254 ± 23 s⁻¹ | kcat/Km [2]: 2.54e+06 ± 276000 M⁻¹ s⁻¹ | Km [3]: 3.7 ± 0.5 µM | kcat [3]: 91 ± 7 s⁻¹ | kcat/Km [3]: 2.46e+07 ± 3.93e+06 M⁻¹ s⁻¹
